Assays:
[1] = biological target: PSGL-1 (P-Selectin Glycoprotein Ligand-1) (human) (UniProt Q14242); assay: FACS competition on ML2 cells, 200 ng KPL-1, competitor IgG Y1-PE
[2] = biological target: PSGL-1 (P-Selectin Glycoprotein Ligand-1) (human) (UniProt Q14242); assay: FACS, PE-labeled KPL-1 on ML2 cells

Sequence of UniProt Q14242 (Q14242 42-412): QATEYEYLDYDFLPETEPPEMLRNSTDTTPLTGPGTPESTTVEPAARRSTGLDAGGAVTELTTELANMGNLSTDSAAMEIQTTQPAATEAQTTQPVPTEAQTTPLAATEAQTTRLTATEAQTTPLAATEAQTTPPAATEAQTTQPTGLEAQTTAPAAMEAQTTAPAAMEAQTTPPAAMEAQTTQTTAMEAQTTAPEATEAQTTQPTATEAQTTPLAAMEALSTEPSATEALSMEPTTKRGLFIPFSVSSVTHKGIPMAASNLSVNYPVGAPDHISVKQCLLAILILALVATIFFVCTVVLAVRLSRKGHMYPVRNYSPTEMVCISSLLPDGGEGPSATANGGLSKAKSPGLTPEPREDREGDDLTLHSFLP

Median (Geo mean) of IgG Y1-PE binding [1]: 2 geo mean | Percent Inhibition [1]: 100% | Median (Geo mean) [2]: 700 geo mean
Substance: KPL-1 (commercially available murine monoclonal antibody against PSGL1)
